Laboratory results from patent publication US20200069764A1 (Pfizer, published 2020).

B1: EDB-L19-diS-DM1 (antibody, human IgG1, kappa)
heavy: not shown
light: EIVLTQSPGTLSLSPGERATLSCRASQSVSSSFLAWYQQKPGQAPRLLIYYASSRATGIPDRFSGSGSGTDFTLTISRLEPEDFAVYYCQQTGRIPPTFGQGTKVEIKRTVAAPSVFIFPPSDEQLKSGTASVVCLLNNFYPREAKVQWKVDNALQSGNSQESVTEQDSKDSTYSLSSTLTLSKADYEKHKVYACEVTHQGLSSPVTKSFNRGEC
B2: EDB-L19-diS-C2OCO-1569 (antibody, human IgG1, kappa)
heavy: not shown
light: EIVLTQSPGTLSLSPGERATLSCRASQSVSSSFLAWYQQKPGQAPRLLIYYASSRATGIPDRFSGSGSGTDFTLTISRLEPEDFAVYYCQQTGRIPPTFGQGTKVEIKRTVAAPSVFIFPPSDEQLKSGTASVVCLLNNFYPREAKVQWKVDNALQSGNSQESVTEQDSKDSTYSLSSTLTLSKADYEKHKVYACEVTHQGLSSPVTKSFNRGEC
B3: EDB-L19-diS-4574 (antibody, human IgG1, kappa)
heavy: not shown
light: EIVLTQSPGTLSLSPGERATLSCRASQSVSSSFLAWYQQKPGQAPRLLIYYASSRATGIPDRFSGSGSGTDFTLTISRLEPEDFAVYYCQQTGRIPPTFGQGTKVEIKRTVAAPSVFIFPPSDEQLKSGTASVVCLLNNFYPREAKVQWKVDNALQSGNSQESVTEQDSKDSTYSLSSTLTLSKADYEKHKVYACEVTHQGLSSPVTKSFNRGEC

Each binder was assayed against EDB+ FN on WI38-VA13 cells (human, UniProt P02751 32-2477) (assay: cell-based or functional assay).
Sequence of EDB+ FN on WI38-VA13 cells (P02751 32-2477): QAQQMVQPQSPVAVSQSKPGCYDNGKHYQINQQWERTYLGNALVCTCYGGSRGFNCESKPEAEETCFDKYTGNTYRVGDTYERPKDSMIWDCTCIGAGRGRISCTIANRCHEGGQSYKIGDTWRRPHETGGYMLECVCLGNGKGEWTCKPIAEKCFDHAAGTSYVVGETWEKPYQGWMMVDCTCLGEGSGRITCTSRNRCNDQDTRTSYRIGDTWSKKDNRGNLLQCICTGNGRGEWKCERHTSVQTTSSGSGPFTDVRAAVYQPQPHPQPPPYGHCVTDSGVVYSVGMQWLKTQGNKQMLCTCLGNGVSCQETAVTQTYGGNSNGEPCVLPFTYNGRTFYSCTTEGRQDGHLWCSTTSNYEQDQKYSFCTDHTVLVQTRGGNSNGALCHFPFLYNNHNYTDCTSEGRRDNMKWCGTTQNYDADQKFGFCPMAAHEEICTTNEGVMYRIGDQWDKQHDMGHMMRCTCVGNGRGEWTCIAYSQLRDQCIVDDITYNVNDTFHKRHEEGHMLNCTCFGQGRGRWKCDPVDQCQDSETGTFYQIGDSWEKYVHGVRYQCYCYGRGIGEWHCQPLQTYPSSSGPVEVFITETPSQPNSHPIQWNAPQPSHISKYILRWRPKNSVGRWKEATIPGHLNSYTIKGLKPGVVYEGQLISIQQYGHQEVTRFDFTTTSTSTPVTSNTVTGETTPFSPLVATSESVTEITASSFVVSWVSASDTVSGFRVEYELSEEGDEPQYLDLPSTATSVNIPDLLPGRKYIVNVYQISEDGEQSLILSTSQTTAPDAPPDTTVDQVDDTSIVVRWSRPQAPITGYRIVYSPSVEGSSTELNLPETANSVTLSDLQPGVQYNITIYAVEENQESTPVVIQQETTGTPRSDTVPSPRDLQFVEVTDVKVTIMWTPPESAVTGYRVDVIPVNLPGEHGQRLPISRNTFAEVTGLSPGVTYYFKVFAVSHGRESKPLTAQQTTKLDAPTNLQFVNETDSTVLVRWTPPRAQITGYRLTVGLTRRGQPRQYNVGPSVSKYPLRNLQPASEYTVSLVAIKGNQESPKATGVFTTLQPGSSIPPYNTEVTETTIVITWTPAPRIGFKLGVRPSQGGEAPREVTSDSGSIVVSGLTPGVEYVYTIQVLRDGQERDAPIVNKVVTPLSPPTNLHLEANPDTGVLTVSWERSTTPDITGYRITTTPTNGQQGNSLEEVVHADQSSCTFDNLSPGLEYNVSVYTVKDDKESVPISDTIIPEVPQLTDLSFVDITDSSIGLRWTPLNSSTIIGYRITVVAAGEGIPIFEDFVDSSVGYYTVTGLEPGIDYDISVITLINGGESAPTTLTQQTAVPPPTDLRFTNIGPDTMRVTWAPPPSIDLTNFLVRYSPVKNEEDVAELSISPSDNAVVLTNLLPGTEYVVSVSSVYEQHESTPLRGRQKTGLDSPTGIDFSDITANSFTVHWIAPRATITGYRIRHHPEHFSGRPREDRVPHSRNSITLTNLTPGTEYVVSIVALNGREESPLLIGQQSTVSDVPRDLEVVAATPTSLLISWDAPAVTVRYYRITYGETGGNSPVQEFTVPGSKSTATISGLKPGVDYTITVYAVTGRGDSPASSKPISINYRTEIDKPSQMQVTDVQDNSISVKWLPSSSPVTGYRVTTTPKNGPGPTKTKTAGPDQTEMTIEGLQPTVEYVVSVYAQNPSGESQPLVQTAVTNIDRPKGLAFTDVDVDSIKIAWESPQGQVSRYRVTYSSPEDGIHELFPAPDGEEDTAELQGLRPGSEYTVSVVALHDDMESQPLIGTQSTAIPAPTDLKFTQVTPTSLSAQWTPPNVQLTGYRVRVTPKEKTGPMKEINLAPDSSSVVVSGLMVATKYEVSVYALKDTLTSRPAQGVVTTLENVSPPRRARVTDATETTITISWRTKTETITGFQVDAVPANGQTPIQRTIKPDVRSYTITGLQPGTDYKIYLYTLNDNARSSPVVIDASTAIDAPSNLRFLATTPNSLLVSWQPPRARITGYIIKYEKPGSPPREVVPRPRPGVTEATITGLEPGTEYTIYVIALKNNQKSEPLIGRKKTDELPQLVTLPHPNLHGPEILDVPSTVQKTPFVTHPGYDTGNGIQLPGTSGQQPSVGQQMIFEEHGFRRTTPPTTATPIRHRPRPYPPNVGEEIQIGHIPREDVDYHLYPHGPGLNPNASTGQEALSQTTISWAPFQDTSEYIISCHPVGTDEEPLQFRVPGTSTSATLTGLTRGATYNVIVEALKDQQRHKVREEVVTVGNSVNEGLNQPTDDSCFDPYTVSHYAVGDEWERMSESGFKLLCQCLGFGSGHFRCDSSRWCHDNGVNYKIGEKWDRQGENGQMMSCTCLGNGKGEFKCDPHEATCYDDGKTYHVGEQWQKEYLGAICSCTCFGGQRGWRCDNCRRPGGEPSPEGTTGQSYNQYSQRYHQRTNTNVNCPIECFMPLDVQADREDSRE

| Binder | Avg IC50 (ng/ml of antibody), in vitro cytotoxicity on WI38-VA13 cells [ng/mL] |
| --- | --- |
| B1 | 268 |
| B2 | 21 |
| B3 | 487 |
